Paper PMC7660905

Experiments:
[1] = target: D25 IgG (human monoclonal antibody to site Ø of PreF) (human); test: SPR; Biacore T200, single cycle kinetics, IgG captured (100-200 RU) by human Fc binder on a CM5 chip; PreF injected at 0-20 nM, 120 s association, 600 s dissociation; 25 °C, HBS-EP; 1:1 binding model
[2] = target: D25 IgG (human monoclonal antibody to site Ø of PreF) (human); test: SPR; Biacore T200, single cycle kinetics, IgG captured ([…]; 25 °C, HBS-EP; 1:1 binding model
AM14 = test: SPR; conditions: read off a plot; for Kd: parent: est. 100 pM; for ratio to parent: parent: est. 1.0
[3] = target: D25 (human monoclonal antibody to site Ø of PreF); test: SPR; conditions: read off a plot; for Kd: parent: est. 54 pM; for ratio to parent: parent: est. 1.0

Substance	Kd [1] [nM]	koff [1] [s⁻¹]	kon [1] [M⁻¹ s⁻¹]	Kd [2] [nM]	Kd (AM14) [nM]	Kd [3] [nM]	ratio to parent [3]	ratio to parent (AM14)
monomeric form of PreF	0.0977	3.75e-05	384000					
DS-Cav1 (prefusion-stabilized RSV fusion glycoprotein F), trimeric PreF (from UniProt P03420) (complex)				0.0534				
DS-Cav1 (stabilized prefusion RSV glycoprotein F) (from UniProt P03420) K65A					0.088	0.042	0.75	
DS-Cav1 (stabilized prefusion RSV glycoprotein F) (from UniProt P03420) N276S					0.078	0.021	0.4	0.75
DS-Cav1 (stabilized prefusion RSV glycoprotein F) (from UniProt P03420) N63A; K65A					0.083	0.016	0.3	
DS-Cav1 (stabilized prefusion RSV glycoprotein F) (from UniProt P03420) D200N					0.12	0.022	0.4	1.2
DS-Cav1 (stabilized prefusion RSV glycoprotein F) (from UniProt P03420) N63A					0.094	0.025	0.45	0.95
DS-Cav1 (stabilized prefusion RSV glycoprotein F) (from UniProt P03420) D200N; N276S					0.094	0.057	1	0.95
